Experimental data published in publication PMC9671113.

Columns and labels:
[1] = molecular target: trimeric pre-fusion SARS-CoV-2 spike glycoprotein (pre-S) (SARS-CoV-2 (Wuhan-Hu-1 strain) | Phage T4) (UniProt P0DTC2); experiment: SEC
[2] = molecular target: trimeric pre-fusion SARS-CoV-2 spike glycoprotein (pre-S) (SARS-CoV-2 (Wuhan-Hu-1 strain) | Phage T4) (UniProt P0DTC2); experiment: negative-stain electron microscopy (called Cryo-EM by the paper)

**Q.** “trimeric pre-fusion SARS-CoV-2 spike glycoprotein (pre-S) (from UniProt P0DTC2 14-1201) (domain or fragment)” was tested. Which stoichiometry N [1] did it give?
**A.** 3

**Q.** And the stoichiometry N [2]?
**A.** 3
